One may read the IC50 as the concentration that inhibits the measured activity by half. Usually EC50 stands for the midpoint of the concentration-response curve.

In test [1] the target is full-length beta-Catenin (Uniprot ID P35222) (Homo sapiens (Human)) (UniProt P35222). Nature of the test: fluorescence polarization competition; 10 nM full-length beta-catenin + 10 nM 5FAM-TCF4(10-53) probe; peptide titrated 10 uM to 5 nM.
Target sequence in this assay (P35222 2-781 limits assumed): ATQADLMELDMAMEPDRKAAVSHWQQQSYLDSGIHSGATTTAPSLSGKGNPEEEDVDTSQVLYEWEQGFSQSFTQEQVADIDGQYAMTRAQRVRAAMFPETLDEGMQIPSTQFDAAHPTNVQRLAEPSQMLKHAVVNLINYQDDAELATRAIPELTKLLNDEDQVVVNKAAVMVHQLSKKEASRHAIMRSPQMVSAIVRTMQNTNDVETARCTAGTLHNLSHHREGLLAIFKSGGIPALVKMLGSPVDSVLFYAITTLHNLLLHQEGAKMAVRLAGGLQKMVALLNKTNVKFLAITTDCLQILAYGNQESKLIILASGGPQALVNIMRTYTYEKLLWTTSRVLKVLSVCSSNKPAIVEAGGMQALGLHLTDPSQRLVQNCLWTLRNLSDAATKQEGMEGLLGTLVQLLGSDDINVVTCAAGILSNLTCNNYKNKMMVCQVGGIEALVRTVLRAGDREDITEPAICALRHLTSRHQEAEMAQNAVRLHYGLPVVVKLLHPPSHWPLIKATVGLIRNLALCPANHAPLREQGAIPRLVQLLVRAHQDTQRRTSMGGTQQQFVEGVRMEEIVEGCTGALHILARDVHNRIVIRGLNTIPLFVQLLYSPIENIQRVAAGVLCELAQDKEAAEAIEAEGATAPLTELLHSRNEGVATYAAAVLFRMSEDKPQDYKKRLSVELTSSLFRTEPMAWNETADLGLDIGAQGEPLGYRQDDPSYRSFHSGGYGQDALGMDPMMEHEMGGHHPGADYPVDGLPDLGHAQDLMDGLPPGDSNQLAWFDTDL
For test [2] the target is unchanged. Nature of the test: fluorescence polarization competition; 10 nM full-length beta-catenin, 10 nM 5FAM-TCF4(10-53) as competitor probe. A general note: Polarisation of emitted light reports the rotation of a fluorescent probe.
Target sequence in this assay (P35222 2-781 limits assumed): as above
The target is the same in test [3]. The experiment in a line: fluorescence polarization competition; peptide titrated against full-length beta-catenin + 5FAM-TCF4(10-53).
Target sequence in this assay (P35222 whole entry): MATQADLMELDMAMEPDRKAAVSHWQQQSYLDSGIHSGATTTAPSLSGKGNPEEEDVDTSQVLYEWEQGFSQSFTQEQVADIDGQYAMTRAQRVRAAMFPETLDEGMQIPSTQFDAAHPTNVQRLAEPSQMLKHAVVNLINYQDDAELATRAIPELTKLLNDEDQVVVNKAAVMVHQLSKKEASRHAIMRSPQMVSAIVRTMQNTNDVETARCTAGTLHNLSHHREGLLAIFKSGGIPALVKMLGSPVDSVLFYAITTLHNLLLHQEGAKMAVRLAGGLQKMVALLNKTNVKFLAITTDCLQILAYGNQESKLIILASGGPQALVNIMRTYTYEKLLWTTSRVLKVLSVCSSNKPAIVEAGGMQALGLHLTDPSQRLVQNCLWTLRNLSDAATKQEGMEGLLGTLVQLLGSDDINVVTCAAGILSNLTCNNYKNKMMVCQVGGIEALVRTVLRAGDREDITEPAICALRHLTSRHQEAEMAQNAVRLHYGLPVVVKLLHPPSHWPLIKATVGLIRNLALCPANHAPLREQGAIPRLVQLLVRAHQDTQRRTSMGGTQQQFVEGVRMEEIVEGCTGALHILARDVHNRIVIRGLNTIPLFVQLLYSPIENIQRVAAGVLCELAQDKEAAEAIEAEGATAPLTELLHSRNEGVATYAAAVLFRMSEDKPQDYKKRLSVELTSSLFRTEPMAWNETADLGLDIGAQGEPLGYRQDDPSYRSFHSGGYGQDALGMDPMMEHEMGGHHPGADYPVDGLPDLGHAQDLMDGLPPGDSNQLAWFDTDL
The target is the same in test [4]. Nature of the test: fluorescence polarization competition; full-length beta-catenin with 5FAM-labeled TCF4 residues 10-53 probe as competitor.
Target sequence in this assay (P35222 whole entry): as above
The target is the same in test [5]. Nature of the test: fluorescence polarization competition; full-length beta-catenin + 5FAM-TCF4(10-53) probe; peptide titrated.
Target sequence in this assay (P35222 2-781 limits assumed): as the sequence (P35222 2-781 limits assumed) above

Starred links: 1 amine or outer side, 2 acyl side, 3 side chain; linkers in the order of their positions; H or OH if unused. Positions of bridges follow the written chain, without caps; N, C: chain ends. Non-standard residues stand in square brackets, D forms with d. Primed or numbered codes have the meaning given here. PyrS2″ = (S)-3-amino-1-((pent-4-en-1-yloxy)carbonyl)pyrrolidine-3-carboxylic acid (stapling residue), C=CCCCOC(=O)N1CC[C@@](N[*:1])(C(=O)[*:2])C1; B5(4) = 2,2-bis(4-pentenyl)glycine = 2-amino-2-(pent-4-en-1-yl)hept-6-enoic acid (stitching residue), C=CCCCC(CCCC=C)(N[*:1])C(=O)[*:2]; B5(5) = 2,2-bis(4-pentenyl)glycine, 2-amino-2-(pent-4-en-1-yl)hept-6-enoic acid (stitching residue), C=CCCCC(CCCC=C)(N[*:1])C(=O)[*:2]; TfeGA = (S)-2-amino-3-((carboxymethyl)(2,2,2-trifluoroethyl)amino)propanoic acid, O=C([C@H](CN(CC(=O)[*:3])CC(F)(F)F)N[*:1])[*:2]; B5(31) = 2-amino-2-(pent-4-en-1-yl)hept-6-enoic acid (bis-pentenylglycine, stitching residue), C=CCCCC(CCCC=C)(N[*:1])C(=O)[*:2]; B5(3) = 2,2-bis(4-pentenyl)glycine (stitching residue), C=CCCCC(CCCC=C)(N[*:1])C(=O)[*:2]; B5 = 2-amino-2-(pent-4-en-1-yl)hept-6-enoic acid, C=CCCCC(CCCC=C)(N[*:1])C(=O)[*:2]; Phe(3-COOH) = N[C@@H](Cc1cccc(C(=O)O)c1)C(=O)O; 2F3MeF = Cc1cccc(C[C@H](N[*:1])C(=O)[*:2])c1F; Phe(2-CF3) = N[C@@H](Cc1ccccc1C(F)(F)F)C(=O)O; Bip = N[C@@H](Cc1ccc(-c2ccccc2)cc1)C(=O)O; Dip = N[C@H](C(=O)O)C(c1ccccc1)c1ccccc1; Phe(2-Cl) = N[C@@H](Cc1ccccc1Cl)C(=O)O; Met(O2) = CS(=O)(=O)CC[C@H](N)C(=O)O; Bta = N[C@@H](Cc1csc2ccccc12)C(=O)O; Lys(iPr) = CC(C)NCCCC[C@H](N)C(=O)O; αAllylPro = C=CC[C@@]1(C(=O)O)CCCN1; tBuAla = CC(C)(C)C[C@H](N)C(=O)O; 3Thi = N[C@@H](Cc1ccsc1)C(=O)O; Cha = N[C@@H](CC1CCCCC1)C(=O)O; S8 = C=CCCCCCC[C@](C)(N)C(=O)O; Phg = N[C@H](C(=O)O)c1ccccc1; hSer = N[C@@H](CCO)C(=O)O; Aib = CC(C)(N)C(=O)O

As to Ac-[αAllylPro]D[tBuAla][B5(31)]NTAAFT[PyrS2″][3Thi][Bta]H-NH2 (staple 1-4, 4-11) [I-2337], in test [1], the IC50 came out at 311 nM.
In test [2], Ac-[αAllylPro]N[Cha][B5(5)]DQHAFN[PyrS2″]F[Bta][hSer]-NH2 (staple 1-4, 4-11) [I-2066] came in with an IC50 of 357 nM.
Regarding Ac-[αAllylPro]D[tBuAla][B5(3)]NT[Aib]AFN[PyrS2″][3Thi][Bta]Q-NH2 (staple 1-4, 4-11) [I-2338], the IC50 in test [1] turned out to be 63 nM.
The same measure, in the same setting: the figure for Ac-[αAllylPro]D[tBuAla][B5(31)]NTA[Aib]FN[PyrS2″][3Thi][Bta]Q-NH2 (staple 1-4, 4-11) [I-2339] is 2820 nM.
In test [2], Ac-[αAllylPro]D[tBuAla][B5(4)]D[Phe(3-COOH)]AAFL[PyrS2″][Phe(2-Cl)][Bta][Met(O2)]-NH2 (staple 1-4, 4-11) [I-2062] registered an IC50 of 41 nM.
Still for that read-out and setting: the figure for Ac-[αAllylPro]D[tBuAla][B5(4)]D[Phe(3-COOH)]QAFL[PyrS2″][3Thi][Bta]L-NH2 (staple 1-4, 4-11) [I-2056] is 16 nM.
Take Ac-[αAllylPro]N[Cha][B5(31)]D[hSer][Lys(iPr)]AFL[PyrS2″]F[Bta]Q-NH2 (staple 1-4, 4-11; also: staple isomer, earlier eluting HPLC peak) [I-2344]: in test [1], the IC50 stood at 586 nM.
Ac-[αAllylPro]D[tBuAla][B5(4)]D[Phe(3-COOH)]SAFL[PyrS2″][Phe(2-CF3)][Bta]A-NH2 (staple 1-4, 4-11) [I-2059] displayed an IC50 in test [2] of 38 nM.
The molecule Ac-[αAllylPro]D[tBuAla][B5(4)]D[Phe(3-COOH)]QAFL[PyrS2″][2F3MeF][Bta]A-NH2 (staple 1-4, 4-11) [I-2057] had an IC50 in test [2] of 17 nM.
The same measure, in the same setting: the figure for Ac-[αAllylPro]N[Cha][B5(4)]DQQAFN[PyrS2″]F[Bta][hSer]-NH2 (staple 1-4, 4-11) [I-2067] is 180 nM.
For Ac-[αAllylPro]DI[B5]DEAA[Cha]Q[S8]F[Bta]Q-NH2 (staple 1-4, 4-11) [I-722], the IC50 in test [3] came out at 1130 nM. Moreover, the EC50 in test [4] is 1.13 µM.
The like results for Ac-[αAllylPro]DI[B5]DEAA[Phg]Q[S8]F[Bta]Q-NH2 (staple 1-4, 4-11) [I-726] were, in that order, 5000 nM and 5 µM.
For the molecule Ac-[αAllylPro]N[Cha][B5(4)]DQ[Lys(iPr)]AFN[PyrS2″]F[Bta]F-NH2 (staple 1-4, 4-11) [I-2068], the IC50 in test [2] stood at 338 nM.
Consider Ac-[αAllylPro]DI[B5]DEAA[Dip]Q[S8]F[Bta]Q-NH2 (staple 1-4, 4-11) [I-725], for which the IC50 in test [3] is 5000 nM. The molecule further registered an EC50 in test [4] of 5 µM.
In the case of Ac-[αAllylPro]D[tBuAla][B5(4)]D[Phe(3-COOH)]QAFV[PyrS2″][3Thi][Bta]A-NH2 (staple 1-4, 4-11) [I-2054], the IC50 in test [2] worked out at 5 nM.
For the molecule Ac-[αAllylPro]D[tBuAla][B5(3)]N[Phe(3-COOH)]AAFT[PyrS2″][3Thi][Bta]Q-NH2 (staple 1-4, 4-11) [I-2336], the 50% inhibitory concentration (IC50) in test [1] was 19 nM.
The molecule Ac-[αAllylPro]D[tBuAla][B5(4)]D[Phe(3-COOH)]NAFL[PyrS2″][Phe(2-CF3)][Bta]A-NH2 (staple 1-4, 4-11) [I-2058] registered an IC50 in test [2] of 10 nM.
Still for that read-out and setting: the figure for Ac-[αAllylPro]D[tBuAla][B5(3)]D[Phe(3-COOH)]TAFL[PyrS2″][3Thi][Bta]A-NH2 (staple 1-4, 4-11) [I-2051] is 16 nM.
Take Ac-[αAllylPro]D[Cha][B5(3)]D[TfeGA]AAFN[S8][3Thi][Bta]H-NH2 (staple 1-4, 4-11) [I-709]: the EC50 in test [5] turned out to be 54 nM. Moreover, the IC50 in test [3] worked out at 54 nM.
In the case of Ac-[αAllylPro]D[tBuAla][B5(4)]D[Phe(3-COOH)]AAFL[PyrS2″][Phe(2-CF3)][Bta][Met(O2)]-NH2 (staple 1-4, 4-11) [I-2063], the IC50 in test [2] was found to be 56 nM.
The same measure, in the same setting: the figure for Ac-[αAllylPro]N[Cha][B5(4)]DQ[Lys(iPr)]AFN[PyrS2″]F[Bta]A-NH2 (staple 1-4, 4-11) [I-2065] is 144 nM; for Ac-[αAllylPro]N[Cha][B5(4)]DQHAFN[PyrS2″]F[Bta]A-NH2 (staple 1-4, 4-11) [I-2069] it is 256 nM; for Ac-[αAllylPro]N[Cha][B5(4)]DQQAFN[PyrS2″]F[Bta]A-NH2 (staple 1-4, 4-11) [I-2070] it is 190 nM.
In the case of Ac-[αAllylPro]D[tBuAla][B5(3)]D[TfeGA]AAFN[S8][3Thi][Bta]H-NH2 (staple 1-4, 4-11) [I-705], the EC50 in test [5] was 58 nM. Moreover, in test [3], the IC50 was found to be 58 nM.
For Ac-[αAllylPro]DI[B5]DEAAFN[S8][3Thi][Bta]-NH2 (staple 1-4, 4-11) [I-721], the IC50 in test [3] was found to be 46 nM. In addition, in test [4], the EC50 worked out at 0.046 µM.
In turn, Ac-[αAllylPro]D[tBuAla][B5(3)]D[Phe(3-COOH)]QAFF[PyrS2″][3Thi][Bta]A-NH2 (staple 1-4, 4-11) [I-2052] gave an IC50 in test [2] of 12 nM.
As to Ac-[αAllylPro]DI[B5]DEAA[Bip]Q[S8]F[Bta]Q-NH2 (staple 1-4, 4-11) [I-723], the IC50 in test [3] was determined as 3830 nM. For the same molecule, in test [4], the EC50 stood at 3.83 µM.
In test [2], Ac-[αAllylPro]D[tBuAla][B5(4)]D[Phe(3-COOH)]TAFL[PyrS2″][Phe(2-CF3)][Bta]A-NH2 (staple 1-4, 4-11) [I-2060] gave an IC50 of 56 nM.

These data come from patent US20240116985A1, “STAPLED PEPTIDES AND METHODS THEREOF” (priority 2020, published 2024).
